Experiment [1] deals with EncA-157ST (Myxococcus xanthus encapsulin shell protein EncA with the SpyTag peptide inserted between residues 157 and 158) (Myxococcus xanthus | Streptococcus pyogenes) (UniProt Q1D6H4). The experiment can be described thus: negative-stain TEM; purified empty (unloaded) nanocompartments, 0.01-0.03 mg/mL, uranyl acetate 0.5% stain; subunit number read from the particle diameter.

For experiment [2] the target is unchanged. The experiment can be described thus: negative-stain TEM; purified nanocompartments loaded with sfGFP-CLP (coexpressed), 0.01-0.03 mg/mL, uranyl acetate 0.5% stain; subunit number read from the particle diameter.
Experiment [3] concerns the target EncA-ST (Myxococcus xanthus encapsulin shell protein EncA with the SpyTag peptide fused to its C-terminus) (Myxococcus xanthus | Streptococcus pyogenes). The experiment can be described thus: negative-stain TEM; purified empty (unloaded) nanocompartments, 0.01-0.03 mg/mL, uranyl acetate 0.5% stain; subunit number read from the particle diameter.
For experiment [4] the target is unchanged. The experiment can be described thus: negative-stain TEM; purified nanocompartments loaded with sfGFP-CLP (coexpressed), 0.01-0.03 mg/mL, uranyl acetate 0.5% stain; subunit number read from the particle diameter.

The term stoichiometry N denotes a count of units in the complex or per binding partner. Take “EncA-157ST (Myxococcus xanthus encapsulin shell protein EncA with the SpyTag peptide inserted between residues 157 and 158) (from UniProt Q1D6H4 1-157; Q1D6H4 158-287)”: the figures for the stoichiometry N in experiment [1] and in experiment [2] were 60 subunits and 180 subunits, respectively.

In the case of “EncA-ST (Myxococcus xanthus encapsulin shell protein EncA with the SpyTag peptide fused to its C-terminus)”, the stoichiometry N in experiment [3] was found to be 60 subunits; in experiment [4], 180 subunits.
